Experimental data from patent US20240226168A1.

Molecular target: poliovirus receptor (PVR) (UniProt P15151)
Test: cell-based or functional assay

Sequence of poliovirus receptor (PVR) (P15151 21-417 limits assumed): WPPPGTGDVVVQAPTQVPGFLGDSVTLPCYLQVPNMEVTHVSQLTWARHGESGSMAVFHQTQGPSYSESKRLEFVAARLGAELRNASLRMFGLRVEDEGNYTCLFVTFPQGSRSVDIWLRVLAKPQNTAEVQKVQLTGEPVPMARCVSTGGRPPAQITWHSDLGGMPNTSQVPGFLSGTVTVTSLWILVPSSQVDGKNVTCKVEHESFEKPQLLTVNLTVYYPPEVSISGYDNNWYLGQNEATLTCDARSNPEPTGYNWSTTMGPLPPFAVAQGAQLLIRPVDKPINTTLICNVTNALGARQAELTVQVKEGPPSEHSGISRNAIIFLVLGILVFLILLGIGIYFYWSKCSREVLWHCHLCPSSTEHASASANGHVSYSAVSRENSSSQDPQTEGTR

Sequence “T cell immunoreceptor with Ig and ITIM domains (TIGIT) (from UniProt Q495A1 22-244)” has a frequency of TNFα+ NK cells after A549 spheroid co-culture (isotype control) and restimulation with PVR+ K562 cells of 15% and a loss in the IFNγ generation capacity of A549 spheroid-exposed PM21-NK cells of 30%.
